Holding throughout (assay type): cell-based
Assay [1] deals with T1, Kir2.4 (Homo sapiens, UniProt Q9UNX9).
T1 sequence (Q9UNX9 1-436): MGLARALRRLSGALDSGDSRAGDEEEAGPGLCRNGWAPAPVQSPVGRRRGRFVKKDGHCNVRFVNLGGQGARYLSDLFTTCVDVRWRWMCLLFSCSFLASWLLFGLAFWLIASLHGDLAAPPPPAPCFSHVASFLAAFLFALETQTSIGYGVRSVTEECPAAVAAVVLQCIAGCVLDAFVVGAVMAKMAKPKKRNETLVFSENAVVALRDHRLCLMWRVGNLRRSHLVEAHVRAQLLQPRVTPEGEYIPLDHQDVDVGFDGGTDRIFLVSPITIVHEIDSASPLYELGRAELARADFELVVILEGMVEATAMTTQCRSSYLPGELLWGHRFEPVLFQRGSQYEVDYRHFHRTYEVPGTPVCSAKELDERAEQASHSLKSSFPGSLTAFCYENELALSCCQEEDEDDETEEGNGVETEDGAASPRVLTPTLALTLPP
Briefly: Whole-cell patch-clamp of Kir2.4 in HEK293 cells with SUMO1 or SENP1 in the recording pipette. Set-up: expressed in transfected cells. As to the method:
Currents were measured at −80 mV in 140 mM external K+.
Similarly, currents were no longer enhanced by SENP1.
SUMOylation regulates Kir2.4 channels in mammalian cells. Next, we tested if SUMO could regulate Kir2.4 channels in mammalian cells. Kir2.4 channels were transiently expressed in HEK293 cells and studied in whole-cell mode with 140 mM bath [K]^+, using a ramp protocol from −80 to +80 mV. Purified SUMO1 or SENP1 peptide were introduced via the recording pipette. At 1 nM, SUMO1, but not heat-denatured SUMO1, inhibited Kir2.4 currents by ˜40 and 60%, respectively, within one-minute of breakthrough. In contrast, 1 nM SENP1 increased the current by ˜50% (FIG. 7).
The PIP2-dependence of SUMO-regulation. Using the 5-ptaseOCRL system, we depleted PIP2 in HEK293 cells expressing Kir2.4 and studied currents with 1 nM SUMO1, or SENP1 in the recording pipette. When currents were recorded after 5-min activation of the optogenetic probe, 5-ptaseOCRL, the inhibitory effect of 1 nM SUMO1 on Kir2.4 was reduced from ˜40% to ˜7% (FIG. 9). Current augmentation observed with SENP1 in the pipette was reduced from […] to ˜6%. These preliminary data support the conclusion that SUMO-regulation of Kir2.4 channels is PIP2-dependent.
A general note: Patch clamp records ionic current or voltage across a cell membrane.

The next assay addresses T2, Kir2.3 (Homo sapiens, UniProt P48050).
T2 construct: expressed in transfected cells; host or cells: Xenopus oocytes
T2 sequence (P48050 1-445): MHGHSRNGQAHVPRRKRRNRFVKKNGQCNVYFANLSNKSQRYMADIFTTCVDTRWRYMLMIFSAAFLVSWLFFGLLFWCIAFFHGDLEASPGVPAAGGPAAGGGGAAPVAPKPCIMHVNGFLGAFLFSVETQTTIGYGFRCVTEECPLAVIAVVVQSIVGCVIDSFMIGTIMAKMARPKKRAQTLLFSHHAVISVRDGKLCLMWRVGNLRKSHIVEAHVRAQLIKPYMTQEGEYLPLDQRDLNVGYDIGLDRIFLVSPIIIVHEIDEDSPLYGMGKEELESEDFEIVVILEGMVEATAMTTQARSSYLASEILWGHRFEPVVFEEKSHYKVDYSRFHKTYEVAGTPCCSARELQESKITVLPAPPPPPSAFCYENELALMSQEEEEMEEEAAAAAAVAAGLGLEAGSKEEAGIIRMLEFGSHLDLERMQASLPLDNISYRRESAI
Briefly: Two-electrode voltage-clamp of Kir2.3 currents in Xenopus oocytes. Conditions: co-expression. The text has this:
(§1) FIG. 5A discloses SEQ ID NOS 6-9, respectively, in order of appearance. […] SENP1 increases the current. […] SUMO sensitivity is transferred to Kir2.3 when the site in Kir2.1 is recreated by mutagenesis (Kir2.3-N25D).
(§2) Co-expressed SUMO decreases Kir2.4 currents in Xenopus oocytes. Using the SUMOplot algorithm to assess potential SUMOylation sites based on the canonical motif ψ-K-X-E/D, we identified the high probability SUMO site V-K54-K-D (SEQ ID NO: 4) in the N-terminal sequence of Kir2.4. SUMO covalently modifies Kir2.4 at K54 (FIG. 5) and tested the idea using two-electrode voltage-clamp (TEVC), a sensitive assay to study the regulation of Kir channels. Kir2.4 currents, assessed at −80 mV in a high K^+ (96 mM) bath solution, decreased in a dose-dependent manner with co-expression of SUMO1 (FIG. 5). Co-injection of 5 ng of human SUMO1 RNA decreased Kir2.4 currents by ˜50%. In contrast, expression of SENP1 increased Kir2.4 by ˜50%. […] The analogous sequence in Kir2.2 and Kir2.3 is V-K-K-N(SEQ ID NO: 5), which lacks the terminal aspartic acid, reduced the probability of SUMOylation from 0.93 to 0.31. Consistent with this, Kir2.3 currents were insensitive to SUMO1 and SENP1. […] This last result is consistent with a protein-protein interaction between the channel and SUMO1.
(Two-electrode voltage clamp is typically applied to oocytes expressing channels or transporters.)

The subject of assay [2] is human pulmonary artery smooth muscle cells. The assay can be described thus: Whole cell patch clamp of human pulmonary artery smooth muscle cells, ambient O2 vs acute hypoxia. Conditions: pretreatment with 100 nM. The text has this:
FIGS. 10A-10B show whole cell patch clamp recording of human pulmonary artery smooth muscle cells. […] The decrease is statistically significant, *, P<0.05 by Students t-test.
The hPASMCs are in primary culture and were studies by whole cell patch clamp at ambient levels of oxygen (˜21% O2) and under acute hypoxia (2% O2). Cells were studied in quasi-physiological buffers with high external concentrations of potassium using recording protocols.

The target of assay [3] is T1, Kir2.4. Briefly: Two-electrode voltage-clamp of Kir2.4 currents in Xenopus oocytes. Further details: expressed in transfected cells; host or cells: Xenopus oocytes (RNA injection). Conditions: expression of SENP1.
Text: as §1, §2

Values joined by “and” are separate entries in the source; they are usually repeats but may differ in a detail not shown here. Identical values can stand only once. “Also recorded” adds a separate entry of the source.

Take “SUMO1: purified SUMO1 (small ubiquitin-related modifier) protein introduced via the recording pipette or co-expressed”: the “inhibition of Kir2.4 currents after PIP2 depletion” value in the assay with Kir2.4 [1] (1 nM SUMO1, after 5-min activation of 5-ptaseOCRL) was ~7%. Besides, the “inhibition of Kir2.4 currents” value with Kir2.4 [1] (1 nM in pipette, 140 mM bath K+, within one-minute of breakthrough) is ~40% and ~60%. In the assay with Kir2.3, the “sensitivity of Kir2.3 currents” value is reported as “insensitive”.
On to `Cc1sc(C(=O)c2cncnc2N[C@@H]2C[C@H](COS(N)(=O)=O)[C@@H](O)C2)cc1[C@@H]1NCCc2ccc(Cl)cc21` [TAK981, Subasumstat], for which the “effect on hypoxia-induced change of hPASMC inward current” value in assay [2] (2% O2) is on record as “prevents hypoxia induced changes; also recorded: precludes the change in the current caused by acute hypoxia”. Besides, in assay [2] (ambient O2), the “effect on initial current in ambient O2” value is on record as “does not alter the magnitude or the phenotype of the initial current”.

B1: SENP1: purified deSUMOylating enzyme (SUMO specific protease) introduced via the recording pipette or expressed (protein, UniProt Q9P0U3 1-644, looked up)
Sentrin-specific protease 1: MDDIADRMRMDAGEVTLVNHNSVFKTHLLPQTGFPEDQLSLSDQQILSSRQGHLDRSFTCSTRSAAYNPSYYSDNPSSDSFLGSGDLRTFGQSANGQWRNSTPSSSSSLQKSRNSRSLYLETRKTSSGLSNSFAGKSNHHCHVSAYEKSFPIKPVPSPSWSGSCRRSLLSPKKTQRRHVSTAEETVQEEEREIYRQLLQMVTGKQFTIAKPTTHFPLHLSRCLSSSKNTLKDSLFKNGNSCASQIIGSDTSSSGSASILTNQEQLSHSVYSLSSYTPDVAFGSKDSGTLHHPHHHHSVPHQPDNLAASNTQSEGSDSVILLKVKDSQTPTPSSTFFQAELWIKELTSVYDSRARERLRQIEEQKALALQLQNQRLQEREHSVHDSVELHLRVPLEKEIPVTVVQETQKKGHKLTDSEDEFPEITEEMEKEIKNVFRNGNQDEVLSEAFRLTITRKDIQTLNHLNWLNDEIINFYMNMLMERSKEKGLPSVHAFNTFFFTKLKTAGYQAVKRWTKKVDVFSVDILLVPIHLGVHWCLAVVDFRKKNITYYDSMGGINNEACRILLQYLKQESIDKKRKEFDTNGWQLFSKKSQEIPQQMNGSDCGMFACKYADCITKDRPINFTQQHMPYFRKRMVWEILHRKLL
B1: the “increase of Kir2.4 current” value with Kir2.4 [1] (1 nM SENP1 in pipette) is ~50% and ~40%. In the assay with Kir2.4 [1] (1 nM SENP1 in pipette, after 5-min activation of 5-ptaseOCRL), the “Kir2.4 current augmentation after PIP2 depletion” value is given as ~6%. The “increase of Kir2.4 currents” value in the assay with Kir2.4 [3] was ~50%. Moreover, in the assay with Kir2.3, the “sensitivity of Kir2.3 currents” value was “insensitive”.

For the origin of these results see patent US20240358731A1, “SUMO PATHWAY AS AN OXYGEN SENSOR RELEVANT TO THE PATHOPHYSIOLOGY OF PULMONARY ARTERY HYPERTENSION AND CARDIAC ARRHYTHMIA” (Northeastern University, priority 2023, published 2024).
